Laboratory results from PMC10474099, “SLC39A10 promotes malignant phenotypes of gastric cancer cells by activating the CK2-mediated MAPK/ERK and PI3K/AKT pathways” (Experimental & Molecular Medicine, 2023).

Molecular target: the molecule itself
Assay: native gel or EMSA; native PAGE with Coomassie blue staining; CK2β refolded in 20 mM Tris pH 7.2, 5 mM DTT with 4 μM ZnSO4 (presence of Zn2+); monomer to dimer

B1: CK2β (casein kinase 2 regulatory β subunit), human, recombinant His-tagged (natural protein)
chain: not shown
notes: human CK2β (casein kinase 2 beta subunit), Gene ID 1460, CSNK2B; cloned into pET-28a(+); The plasmid is named pET-28a (+)-HIS-CK2β; also called CSNK2B; HIS-CK2β
stoichiometry N: 2
